To fix the notation:
B1: huB1H2-V1 (antibody, human IgG1, kappa, V domains shown)
VH: EVQLVQSGAEVKKPGSSVKVSCKASGYTLTNYVMHWMRQAPGQGLEWIGFIIPFNDGTKYNEHFKGRATLTSDKSTNTAYMELSSLRSEDTAVYYCARYDFEGYFDVWGAGTLVTVSS
VL: DIQMTQSPSSLSASVGDRVTITCSASQDITNFLNWYQQKPGKTVKLLIYSTSRLHSGVPSRFSGSGSGTDYTFTISSLQPEDIATYYCQQYSNLPWTFGQGTKVEIKR
B2: huB1H2-V16 (antibody, human IgG1, kappa, V domains shown)
VH: QVQLVQSGAEVKKPGASVKVSCKASGYTLTNYVMHWVRQAPGQGLEWIGFIIPFNDGTKYNEHFKGRVTITSDTSISTAYMQLSSLRSEDTAVYYCARYDFEGYFDVWGQGTLVTVSS
VL: DIQMTQSPSSLSASVGDRVTITCSASQDITNFLNWYQQKPGKAVKLLIYSTSRLHSGVPSRFSGSGSGTDFTLTISSLQPEDIATYYCQQYSNLPWTFGQGTKVEIKR
B3: huB1H2-V19 (antibody, human IgG1, kappa, V domains shown)
VH: EVQLVQSGAEVKKPGSSVKVSCKASGYTLTNYVMHWMRQAPGQGLEWIGFIIPFNDGTKYNEHFKGRATLTSDKSTNTAYMELSSLRSEDTAVYYCARYDFEGYFDVWGAGTLVTVSS
VL: DIQMTQSPSSLSASVGDRVTITCSASQDITNFLNWYQQKPGKAPKLLIYSTSRLHSGVPSRFSGSGSGTDYTLTISSLQPEDIATYYCQQYSNLPWTFGQGTKVEIKR
B4: huB1H2-V17 (antibody, human IgG1, kappa, V domains shown)
VH: QVQLVQSGAEVKKPGASVKVSCKASGYTLTNYVMHWVRQAPGQGLEWIGFIIPFNDGTKYNEHFKGRVTITRDKSISTAYMQLSSLRSEDTAVYYCARYDFEGYFDVWGQGTLVTVSS
VL: DIQMTQSPSSLSASVGDRVTITCSASQDITNFLNWYQQKPGKAVKLLIYSTSRLHSGVPSRFSGSGSGTDFTLTISSLQPEDIATYYCQQYSNLPWTFGQGTKVEIKR
B5: huB1H2-V20 (antibody, human IgG1, kappa, V domains shown)
VH: QVQLVQSGAEVKKPGASVKVSCKASGYTLTNYVMHWVRQAPGQGLEWIGFIIPFNDGTKYNEHFKGRVTITRDTSISTAYMQLSSLRSEDTAVYYCARYDFEGYFDVWGQGTLVTVSS
VL: DIQMTQSPSSLSASVGDRVTITCSASQDITNFLNWYQQKPGKAPKLLIYSTSRLHSGVPSRFSGSGSGTDYTLTISSLQPEDIATYYCQQYSNLPWTFGQGTKVEIKR
B6: huB1H2-V21 (antibody, human IgG1, kappa, V domains shown)
VH: QVQLVQSGAEVKKPGASVKVSCKASGYTLTNYVMHWMRQAPGQGLEWIGFIIPFNDGTKYNEHFKGRVTITRDTSISTAYMQLSSLRSEDTAVYYCARYDFEGYFDVWGQGTLVTVSS
VL: DIQMTQSPSSLSASVGDRVTITCSASQDITNFLNWYQQKPGKAPKLLIYSTSRLHSGVPSRFSGSGSGTDYTLTISSLQPEDIATYYCQQYSNLPWTFGQGTKVEIKR
B7: huB1H2-V6 (antibody, human IgG1, kappa, V domains shown)
VH: QVQLVQSGAEVKKPGASVKVSCKASGYTLTNYVMHWVRQAPGQGLEWIGFIIPFNDGTKYNEHFKGRVTITSDKSISTAYMQLSSLRSEDTAVYYCARYDFEGYFDVWGQGTLVTVSS
VL: DIQMTQSPSSLSASVGDRVTITCSASQDITNFLNWYQQKPGKTVKLLIYSTSRLHSGVPSRFSGSGSGTDYTFTISSLQPEDIATYYCQQYSNLPWTFGQGTKVEIKR
B8: huB1H2-V18 (antibody, human IgG1, kappa, V domains shown)
VH: QVQLVQSGAEVKKPGASVKVSCKASGYTLTNYVMHWVRQAPGQGLEWIGFIIPFNDGTKYNEHFKGRVTITSDKSISTAYMQLSSLRSEDTAVYYCARYDFEGYFDVWGQGTLVTVSS
VL: DIQMTQSPSSLSASVGDRVTITCSASQDITNFLNWYQQKPGKAVKLLIYSTSRLHSGVPSRFSGSGSGTDFTLTISSLQPEDIATYYCQQYSNLPWTFGQGTKVEIKR
B9: huB1H2-V22 (antibody, human IgG1, kappa, V domains shown)
VH: QVQLVQSGAEVKKPGASVKVSCKASGYTLTNYVMHWVRQAPGQGLEWIGFIIPFNDGTKYNEHFKGRVTITSDTSISTAYMQLSSLRSEDTAVYYCARYDFEGYFDVWGQGTLVTVSS
VL: DIQMTQSPSSLSASVGDRVTITCSASQDITNFLNWYQQKPGKAPKLLIYSTSRLHSGVPSRFSGSGSGTDYTLTISSLQPEDIATYYCQQYSNLPWTFGQGTKVEIKR
B10: huB1H2-V13 (antibody, human IgG1, kappa, V domains shown)
VH: EVQLVQSGAEVKKPGSSVKVSCKASGYTLTNYVMHWMRQAPGQGLEWIGFIIPFNDGTKYNEHFKGRATLTSDKSTNTAYMELSSLRSEDTAVYYCARYDFEGYFDVWGAGTLVTVSS
VL: DIQMTQSPSSLSASVGDRVTITCSASQDITNFLNWYQQKPGKAVKLLIYSTSRLHSGVPSRFSGSGSGTDFTLTISSLQPEDIATYYCQQYSNLPWTFGQGTKVEIKR
B11: huB1H2-V15 (antibody, human IgG1, kappa, V domains shown)
VH: QVQLVQSGAEVKKPGASVKVSCKASGYTLTNYVMHWMRQAPGQGLEWIGFIIPFNDGTKYNEHFKGRVTITRDTSISTAYMQLSSLRSEDTAVYYCARYDFEGYFDVWGQGTLVTVSS
VL: DIQMTQSPSSLSASVGDRVTITCSASQDITNFLNWYQQKPGKAVKLLIYSTSRLHSGVPSRFSGSGSGTDFTLTISSLQPEDIATYYCQQYSNLPWTFGQGTKVEIKR
B12: huB1H2-V5 (antibody, human IgG1, kappa, V domains shown)
VH: QVQLVQSGAEVKKPGASVKVSCKASGYTLTNYVMHWVRQAPGQGLEWIGFIIPFNDGTKYNEHFKGRVTITRDKSISTAYMQLSSLRSEDTAVYYCARYDFEGYFDVWGQGTLVTVSS
VL: DIQMTQSPSSLSASVGDRVTITCSASQDITNFLNWYQQKPGKTVKLLIYSTSRLHSGVPSRFSGSGSGTDYTFTISSLQPEDIATYYCQQYSNLPWTFGQGTKVEIKR
B13: huB1H2-V23 (antibody, human IgG1, kappa, V domains shown)
VH: QVQLVQSGAEVKKPGASVKVSCKASGYTLTNYVMHWVRQAPGQGLEWIGFIIPFNDGTKYNEHFKGRVTITRDKSISTAYMQLSSLRSEDTAVYYCARYDFEGYFDVWGQGTLVTVSS
VL: DIQMTQSPSSLSASVGDRVTITCSASQDITNFLNWYQQKPGKAPKLLIYSTSRLHSGVPSRFSGSGSGTDYTLTISSLQPEDIATYYCQQYSNLPWTFGQGTKVEIKR
B14: huB1H2-V3 (antibody, human IgG1, kappa, V domains shown)
VH: QVQLVQSGAEVKKPGASVKVSCKASGYTLTNYVMHWMRQAPGQGLEWIGFIIPFNDGTKYNEHFKGRVTITRDTSISTAYMQLSSLRSEDTAVYYCARYDFEGYFDVWGQGTLVTVSS
VL: DIQMTQSPSSLSASVGDRVTITCSASQDITNFLNWYQQKPGKTVKLLIYSTSRLHSGVPSRFSGSGSGTDYTFTISSLQPEDIATYYCQQYSNLPWTFGQGTKVEIKR
B15: huB1H2-V24 (antibody, human IgG1, kappa, V domains shown)
VH: QVQLVQSGAEVKKPGASVKVSCKASGYTLTNYVMHWVRQAPGQGLEWIGFIIPFNDGTKYNEHFKGRVTITSDKSISTAYMQLSSLRSEDTAVYYCARYDFEGYFDVWGQGTLVTVSS
VL: DIQMTQSPSSLSASVGDRVTITCSASQDITNFLNWYQQKPGKAPKLLIYSTSRLHSGVPSRFSGSGSGTDYTLTISSLQPEDIATYYCQQYSNLPWTFGQGTKVEIKR
B16: huB1H2-V14 (antibody, human IgG1, kappa, V domains shown)
VH: QVQLVQSGAEVKKPGASVKVSCKASGYTLTNYVMHWVRQAPGQGLEWIGFIIPFNDGTKYNEHFKGRVTITRDTSISTAYMQLSSLRSEDTAVYYCARYDFEGYFDVWGQGTLVTVSS
VL: DIQMTQSPSSLSASVGDRVTITCSASQDITNFLNWYQQKPGKAVKLLIYSTSRLHSGVPSRFSGSGSGTDFTLTISSLQPEDIATYYCQQYSNLPWTFGQGTKVEIKR
B17: huB1H2-V4 (antibody, human IgG1, kappa, V domains shown)
VH: QVQLVQSGAEVKKPGASVKVSCKASGYTLTNYVMHWVRQAPGQGLEWIGFIIPFNDGTKYNEHFKGRVTITSDTSISTAYMQLSSLRSEDTAVYYCARYDFEGYFDVWGQGTLVTVSS
VL: DIQMTQSPSSLSASVGDRVTITCSASQDITNFLNWYQQKPGKTVKLLIYSTSRLHSGVPSRFSGSGSGTDYTFTISSLQPEDIATYYCQQYSNLPWTFGQGTKVEIKR
B18: huB1H2-V2 (antibody, human IgG1, kappa, V domains shown)
VH: QVQLVQSGAEVKKPGASVKVSCKASGYTLTNYVMHWVRQAPGQGLEWIGFIIPFNDGTKYNEHFKGRVTITRDTSISTAYMQLSSLRSEDTAVYYCARYDFEGYFDVWGQGTLVTVSS
VL: DIQMTQSPSSLSASVGDRVTITCSASQDITNFLNWYQQKPGKTVKLLIYSTSRLHSGVPSRFSGSGSGTDYTFTISSLQPEDIATYYCQQYSNLPWTFGQGTKVEIKR

Results on 18 molecules are retold here after patent US20230055711A1 (BIOSION, published 2023).

The target of the experiment is recombinant human BCMA-his protein (Acro biosystems, Cat #BCA-H522Y) (human) (UniProt Q02223). The experiment in a line: BLI Octet RED96, antibody on AHC sensor, BCMA-his in solution.
Sequence of recombinant human BCMA-his protein (Acro biosystems, Cat #BCA-H522Y) (human) (Q02223 1-54, stated change not applied): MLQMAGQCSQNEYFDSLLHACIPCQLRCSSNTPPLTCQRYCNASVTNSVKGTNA
Regarding B1, the Kd worked out at 1.22 nM, the koff came to 0.000498 s⁻¹ and the kon is 407000 M⁻¹ s⁻¹.

As for B2, the Kd is 3.5 nM, the koff amounted to 0.000887 s⁻¹ and the kon is 254000 M⁻¹ s⁻¹.

For the molecule B3, the Kd was determined as 2.65 nM, the koff was 0.000647 s⁻¹ and the kon came to 244000 M⁻¹ s⁻¹.

Turning to B4, the Kd came to 9.16 nM, the koff is 0.00238 s⁻¹ and the kon was 260000 M⁻¹ s⁻¹.

B5: the Kd came out at 6 nM, the koff amounted to 0.00141 s⁻¹ and the kon was determined as 234000 M⁻¹ s⁻¹.

As for B6, the Kd stood at 7.12 nM, the koff stood at 0.00142 s⁻¹ and the kon amounted to 199000 M⁻¹ s⁻¹.

In the case of B7, the Kd came out at 1.12 nM, the koff came to 0.00044 s⁻¹ and the kon is 392000 M⁻¹ s⁻¹.

B8: the Kd was found to be 2.22 nM, the koff is 0.000921 s⁻¹ and the kon was found to be 415000 M⁻¹ s⁻¹.

Take B9: the Kd turned out to be 3.77 nM, the koff turned out to be 0.000862 s⁻¹ and the kon was found to be 229000 M⁻¹ s⁻¹.

Turning to B10, the Kd worked out at 2.21 nM, the koff stood at 0.000688 s⁻¹ and the kon stood at 312000 M⁻¹ s⁻¹.

Take B11: the Kd turned out to be 6.06 nM, the off-rate constant (koff) was 0.00137 s⁻¹ and the kon was found to be 226000 M⁻¹ s⁻¹.

In the case of B12, the Kd is 0.915 nM, the koff amounted to 0.000372 s⁻¹ and the kon is 407000 M⁻¹ s⁻¹.

Regarding B13, the Kd came out at 20.4 nM, the koff is 0.00214 s⁻¹ and the kon amounted to 105000 M⁻¹ s⁻¹.

B14: the Kd turned out to be 0.731 nM, the koff was 0.000402 s⁻¹ and the kon amounted to 550000 M⁻¹ s⁻¹.

Take B15: the Kd stood at 6.1 nM, the koff was determined as 0.001 s⁻¹ and the on-rate constant (kon) worked out at 164000 M⁻¹ s⁻¹.

In the case of B16, the Kd was 5.14 nM, the koff stood at 0.00137 s⁻¹ and the kon is 266000 M⁻¹ s⁻¹.

With B17, the Kd is 0.269 nM, the koff was 0.00029 s⁻¹ and the kon was 1.08e+06 M⁻¹ s⁻¹.

Consider B18, for which the Kd was determined as 1.29 nM, the koff is 0.000742 s⁻¹ and the on-rate constant (kon) is 573000 M⁻¹ s⁻¹.
